Reference: the supplement of paper PMC9170038

Test system: MS2 coat protein
Test: apparent KD of MS2 coat protein; designed switch direction (-1 OFF switch, 1 ON switch): -1; higher = weaker reporter binding
How it was run: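 Three titration conditions were used: no input, 200 uM small-molecule ligand, and an oligonucleotide input. In each, SNAP-549-labelled MS2 coat protein was raised from 0.7 or 1.5 nM, doubling, to 3 µM over designed RNA switches transcribed on Illumina chips by stalled E. coli RNA polymerase. Curve fits of normalised cluster fluorescence gave values whose per-design median over clusters is the apparent KD.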

[1] = input ligand: microRNA oligo, concentration not stated
[2] = Eterna round: R95, input ligand: FMN 200 uM
[3] = Eterna round: R95, input ligand: microRNA oligo, concentration not stated
[4] = Eterna round: R95, input ligand: none

| Sequence | apparent KD of MS2 coat protein (input ligand: FMN 200 uM) [nM] | apparent KD of MS2 coat protein (input ligand: none) [nM] | apparent KD of MS2 coat protein [1] [nM] | apparent KD of MS2 coat protein [2] [nM] | apparent KD of MS2 coat protein [3] [nM] | apparent KD of MS2 coat protein [4] [nM] |
| --- | --- | --- | --- | --- | --- | --- |
| CACAGACAUGAGGAUCACCCAUGUUAGGAUAUGGAUAGCCUGCCAAGAAUAGGCGCCUCCAGAAGGAACUGGGA [Eternabot (Original) Solution 36] (Eterna round: R97, puzzle: Exclusion 1) | 141 | 61.1 |  |  |  |  |
| GGUCAGAUGGUAGGAUAUCCAUAUCGAGUGACCCUUUCAUAACAUGAGGAUCACCCAUGUCGGUGGGAGAAGGGCCGUACGGUG [salish99_ExNG02_R04_023] (Eterna round: R96, puzzle: Exclusion NG 2) | 39.5 | 48.8 | 41.2 |  |  |  |
| GAUUAUGCAAGCUUUUGGGACAUGAGGAUCACCCAUGUUCGUCUUAUUGAUCUAGGUACGCUGACGUACCUAGAUCU [JL-sv1-2.32 Brourd mod] (puzzle: Sensor v3, turn-off variant 1) |  |  |  | 18.1 | 62.2 | 17.6 |
| GCUGGACAAGGAUAUGCAAUCGUGCUUCGGCACGUAAGGUCACAUGAGGAUCACCCAUGUAGAAGGUGUCCAGC [E2/4-C2] (Eterna round: R97, puzzle: Exclusion 2) | 31.3 | 16.1 |  |  |  |  |
| AUAAAAUAGGAGGAUAUCGUAUCGGAAACGAUACGAGAAGGUCUAACAUGAGGAUCACCCAUGUUCCUCAAUAA [Mat - Exclusion 6 - Eli Mod - D46] (puzzle: Exclusion 6) |  |  |  | 142 | 36.3 | 37.6 |
| UGAUCUAGCGGAGGAUAUACAUGAGGAUCACCCAUGUAGAUAACUGCACCGUAGUGUAGUAUUGUGUAGAAGGCCGCUAGAUCU [JL ENG2 3.65] (Eterna round: R96, puzzle: Exclusion NG 2) | 26.8 | 14.2 | 11.4 |  |  |  |
| UCAAGUUUAGAGGAUAUAUAAUAUUUAUUAACUAUAGAAGGCUAUACAUGAGGAUCACCCAUGUAUAUUGGGAU [JR_Ex6_Sub066] (Eterna round: R97, puzzle: Exclusion 6) | 40.6 | 26.1 |  |  |  |  |
| GGUCUUCAAGUCAGGAUAUCGUCUAAUCGAUCUGGCGAGAAGGGACAUGAGGAUCACCCAUGUCGUCUCAUCAG [Ex4 #16] (Eterna round: R97, puzzle: Brourd's mod of Exclusion 4) | 22.7 | 17.7 |  |  |  |  |
| AGUACUAACACGAAAGUGUUAGUACAAUAAGCUUGUGGUACAUGAGGAUCACCCAUGUCCUCAUAAGCUCGUCUUAU [JL-sv3-2.13 mat747 mod] (puzzle: Sensor v3, turn-off variant 2) |  |  |  | 22.5 | 62.2 | 20.7 |
| CUGAGGUAGCGGUCCUAUGACAUGAGGAUCACCCAUGUGCCUCGCUACAAGCUUUUUGCUCGUUUUAUGAUUCUCGG [JL Atriat mod 11] (puzzle: Sensor v3, turn-off variant 1) |  |  |  | 71.2 | 90.1 | 95.3 |
| AAAGUUCGAGGAUAUCUACUUAGCUACAUGAGGAUCACCCAUGUUAUCCUCCCGCUGGGAAGAGAAGGCGGUUAAA [Xeonceso] (Eterna round: R96, puzzle: Exclusion 5) | 138 | 34.1 | 27.1 |  |  |  |
| GGUGGACAUGAGGAUCACCCAUGUGAGGAUAUCGGCCGGUUCGUGGUGGCUGGCGUCUCGAGAAGGCGCAUAGU [Exclusion 1 V70] (puzzle: Exclusion 1) |  |  |  |  | 28.6 |  |
| CAGGUGUUAGGAUAUCGGAGAUCGAGACCGACGGGAUGAGCCGAGAAGGAACAUGAGGAUCACCCAUGUAGGUG [JR_Exclu4_Sub034] (puzzle: Exclusion 4) |  |  |  | 166 | 400 | 414 |
| GGUACUAACACGAAAGUGUUAGUACAAUAAGCUAGUGGAACAUGAGGAUCACCCAUGUCCUCAUUAGCUCGUCUUAU [Mat - Sensor v3 - Turn-off var 2 - D36] (puzzle: Sensor v3, turn-off variant 2) |  |  |  | 14.5 | 43.8 | 15 |
| CUUAGUAUCUAGGAUAUCUAGUACAUAGUAUCUAGAGAAGGAGAUACAUGAGGAUCACCCAUGUUCUGUGUUCU [Exclusion 6 - 1:b] (Eterna round: R96, puzzle: Exclusion 6) |  | 24.8 | 18.2 |  |  |  |
| UUUAUGUCAGGAUAUACAUGAGGAUCACCCAUGUAUAUCUAAAAAUAUACAUGGGUAUGUAGAAGGGACCUCCU [Omei Ex3 Pseudoloop 2] (Eterna round: R97, puzzle: Exclusion 3) | 52.6 | 146 |  |  |  |  |
